Experimental findings from US20130203116, “EXPRESSION AND PURIFICATION OF FUSION PROTEIN WITH MULTIPLE MBP TAGS” (The Regents of the University of California 1111 Franklin …, published 2013) are described below.

For data set [1], the target named is T1, BRCA2 (2XMBP-BRCA2, full length) (Homo sapiens, UniProt P51587 P51587:1-3418). In words: EMSA; strongly preferred over dsDNA; 1 mM MgCl2, 2 mM CaCl2, 2 mM ATP, 37 C. To be noted: tags: N-terminal 2xMBP with PreScission site, expressed in human 293T cells, amylose + HiTrap Q. A general note: Mobility shift assays separate free from complexed probe on a gel.
T1 sequence (P51587 whole entry, one chain of several): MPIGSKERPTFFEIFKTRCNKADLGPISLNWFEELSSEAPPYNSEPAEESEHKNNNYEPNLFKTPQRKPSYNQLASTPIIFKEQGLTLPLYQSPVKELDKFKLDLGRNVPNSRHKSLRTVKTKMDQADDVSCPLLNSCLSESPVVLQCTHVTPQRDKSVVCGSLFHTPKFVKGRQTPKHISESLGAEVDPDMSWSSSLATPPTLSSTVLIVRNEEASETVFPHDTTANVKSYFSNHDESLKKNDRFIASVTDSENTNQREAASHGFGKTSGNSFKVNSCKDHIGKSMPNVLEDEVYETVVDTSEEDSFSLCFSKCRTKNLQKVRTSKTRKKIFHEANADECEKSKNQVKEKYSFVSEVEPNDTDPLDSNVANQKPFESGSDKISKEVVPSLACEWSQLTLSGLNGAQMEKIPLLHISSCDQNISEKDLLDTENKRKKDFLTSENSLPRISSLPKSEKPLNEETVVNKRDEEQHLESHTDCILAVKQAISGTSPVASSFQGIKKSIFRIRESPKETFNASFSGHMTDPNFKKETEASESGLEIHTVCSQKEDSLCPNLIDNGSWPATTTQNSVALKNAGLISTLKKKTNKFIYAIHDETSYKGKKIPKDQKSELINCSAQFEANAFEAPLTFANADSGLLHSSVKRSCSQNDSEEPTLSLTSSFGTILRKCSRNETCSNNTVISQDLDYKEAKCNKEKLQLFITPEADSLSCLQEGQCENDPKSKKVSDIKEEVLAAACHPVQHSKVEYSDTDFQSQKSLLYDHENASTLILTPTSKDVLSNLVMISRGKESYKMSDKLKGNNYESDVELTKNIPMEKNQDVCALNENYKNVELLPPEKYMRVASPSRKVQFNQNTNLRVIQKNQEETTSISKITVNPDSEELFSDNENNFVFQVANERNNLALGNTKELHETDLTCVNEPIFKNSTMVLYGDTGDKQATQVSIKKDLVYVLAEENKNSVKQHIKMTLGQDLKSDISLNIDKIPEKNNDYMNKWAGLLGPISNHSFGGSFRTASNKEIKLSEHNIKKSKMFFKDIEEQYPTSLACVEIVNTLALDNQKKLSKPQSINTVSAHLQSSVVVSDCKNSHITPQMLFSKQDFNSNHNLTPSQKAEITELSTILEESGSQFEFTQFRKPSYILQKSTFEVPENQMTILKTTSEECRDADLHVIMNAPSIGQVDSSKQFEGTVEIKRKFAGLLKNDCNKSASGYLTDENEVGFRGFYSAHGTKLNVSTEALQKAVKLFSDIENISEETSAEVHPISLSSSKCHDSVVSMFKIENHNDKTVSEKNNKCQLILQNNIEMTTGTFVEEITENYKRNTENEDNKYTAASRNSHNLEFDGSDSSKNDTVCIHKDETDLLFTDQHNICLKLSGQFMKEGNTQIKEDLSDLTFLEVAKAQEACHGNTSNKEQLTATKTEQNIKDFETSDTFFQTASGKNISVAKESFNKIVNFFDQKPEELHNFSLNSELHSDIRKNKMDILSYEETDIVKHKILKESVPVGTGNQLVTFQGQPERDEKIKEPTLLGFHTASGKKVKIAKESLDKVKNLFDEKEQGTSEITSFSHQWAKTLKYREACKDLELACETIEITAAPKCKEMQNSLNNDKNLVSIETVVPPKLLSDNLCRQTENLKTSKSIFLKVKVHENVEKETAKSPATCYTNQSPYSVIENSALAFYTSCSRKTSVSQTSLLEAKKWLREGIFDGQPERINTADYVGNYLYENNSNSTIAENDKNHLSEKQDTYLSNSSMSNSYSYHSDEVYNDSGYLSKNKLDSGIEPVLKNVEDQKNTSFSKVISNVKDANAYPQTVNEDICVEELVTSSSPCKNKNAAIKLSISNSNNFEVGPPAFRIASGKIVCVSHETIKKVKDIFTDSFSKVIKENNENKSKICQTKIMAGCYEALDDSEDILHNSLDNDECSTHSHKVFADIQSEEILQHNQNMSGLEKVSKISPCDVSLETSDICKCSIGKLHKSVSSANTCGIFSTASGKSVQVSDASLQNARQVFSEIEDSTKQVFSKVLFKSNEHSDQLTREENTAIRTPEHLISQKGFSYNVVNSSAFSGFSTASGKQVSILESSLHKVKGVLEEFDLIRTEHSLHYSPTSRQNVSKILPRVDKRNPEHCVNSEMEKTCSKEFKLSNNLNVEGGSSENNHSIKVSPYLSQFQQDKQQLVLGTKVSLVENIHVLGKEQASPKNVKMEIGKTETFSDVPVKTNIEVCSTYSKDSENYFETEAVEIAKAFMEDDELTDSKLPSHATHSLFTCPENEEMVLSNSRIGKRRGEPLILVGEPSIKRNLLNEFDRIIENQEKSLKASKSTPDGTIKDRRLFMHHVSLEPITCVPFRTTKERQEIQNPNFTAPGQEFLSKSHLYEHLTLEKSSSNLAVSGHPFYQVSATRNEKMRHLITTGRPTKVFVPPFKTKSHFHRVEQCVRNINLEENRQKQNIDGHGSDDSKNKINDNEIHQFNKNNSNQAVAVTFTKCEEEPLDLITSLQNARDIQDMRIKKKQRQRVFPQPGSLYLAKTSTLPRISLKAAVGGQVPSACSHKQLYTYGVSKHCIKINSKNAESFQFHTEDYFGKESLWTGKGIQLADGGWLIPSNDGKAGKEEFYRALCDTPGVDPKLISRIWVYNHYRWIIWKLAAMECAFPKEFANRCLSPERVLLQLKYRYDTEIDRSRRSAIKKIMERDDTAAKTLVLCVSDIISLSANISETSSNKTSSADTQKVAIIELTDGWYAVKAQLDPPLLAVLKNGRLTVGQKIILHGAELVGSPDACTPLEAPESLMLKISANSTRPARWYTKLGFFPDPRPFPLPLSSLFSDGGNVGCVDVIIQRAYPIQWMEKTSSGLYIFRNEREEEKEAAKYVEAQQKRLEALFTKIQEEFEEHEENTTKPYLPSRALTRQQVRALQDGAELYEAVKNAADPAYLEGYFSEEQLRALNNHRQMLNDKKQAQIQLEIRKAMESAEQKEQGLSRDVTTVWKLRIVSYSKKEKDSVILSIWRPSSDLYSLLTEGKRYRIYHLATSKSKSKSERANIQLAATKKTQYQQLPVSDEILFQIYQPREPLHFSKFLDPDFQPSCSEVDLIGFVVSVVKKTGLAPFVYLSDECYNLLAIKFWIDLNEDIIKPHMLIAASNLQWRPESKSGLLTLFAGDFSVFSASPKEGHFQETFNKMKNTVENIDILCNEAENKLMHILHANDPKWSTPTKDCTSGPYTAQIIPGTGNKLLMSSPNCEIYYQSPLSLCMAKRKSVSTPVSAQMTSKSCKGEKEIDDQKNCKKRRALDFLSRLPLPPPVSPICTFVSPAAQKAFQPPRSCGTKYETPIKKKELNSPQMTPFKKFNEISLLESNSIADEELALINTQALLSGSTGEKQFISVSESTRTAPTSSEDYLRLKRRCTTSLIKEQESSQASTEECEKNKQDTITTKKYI
The target in data set [2] is T1, BRCA2 (2XMBP-BRCA2, full length). Kind of data set: EMSA; strongly preferred over dsDNA; slight preference over ssDNA at high salt (0.5-1 M NaCl); 1 mM MgCl2, 2 mM CaCl2, 2 mM ATP, 37 C. To be noted: tags: N-terminal 2xMBP with PreScission site; expressed in human 293T cells, amylose + HiTrap Q; label: 5'-32P on 167-mer (EMSA); 42 bp duplex with 125 nt 3' ssDNA overhang.

B1: 5' tailed DNA (RJ-5'TAIL-167-mer/RJ-PHIX-42-1) (mixed)
DNA 1: ATTTATTCTATTCCCTTTATTTTCTCTGTTTATTCATTTACTTATTTTGTATTAATTTCCTATATTTTTTACTTGTATTTCTTATTCATTTACTTATTTTGTATTATCCTTATTTATATCCTTTCTGCTTTATCAAGATAATTTTTCGACTCATCAGAAATATCCG
DNA 2: CGGATATTTCTGATGAGTCGAAAAATTATCTTGATAAAGCAG
For B1, the binding result in data set [1] (label: 5'-32P on 167-mer (EMSA), 42 bp duplex with 5' ssDNA overhang) was “binds”.

B2: RJ-167-mer ssDNA (ssDNA)
DNA: CTGCTTTATCAAGATAATTTTTCGACTCATCAGAAATATCCGTTTCCTATATTTATTCCTATTATGTTTTATTCATTTACTTATTCTTTATGTTCATTTTTTATATCCTTTACTTTATTTTCTCTGTTTATTCATTTACTTATTTTGTATTATCCTTATCTTATTTA
Consider B2, for which the binding result in data set [1] (label: 5'-32P (EMSA)) is recorded as “binds”.

B3: 3' tailed DNA (RJ-167-mer/RJ-PHIX-42-1) (mixed)
DNA 1: B2 DNA
DNA 2: B1 DNA 2
With B3, the binding result in data set [2] is “binds”.
